Results on two molecules are retold here after patent US7354722 (SIGNAL PHARMACEUTICALS, dated 2008).

This test addresses T1, Xenopus Smurf1 (Xenopus, UniProt Q9PUN2 1-731).
T1 construct: Used as a yeast two-hybrid fusion and as in vitro translated 35S-Met-labelled protein; also called Xsmurf; 35S-labelled Smurf1
In words: in vitro co-immunoprecipitation: 35S-Smurf1 on FLAG-Smad bound to anti-FLAG beads. How it is done: (A) Smurf1 interacts with Smad1. Yeast two-hybrid assays were done on yeast co-transformed with combinations of Xenopus Smurf1 (Xsmurf) together with Smad1, Smad2, lamin or vector alone. […] Co-immunoprecipitation on in vitro translated proteins was done by incubating 35S-labelled Smurf1 together with in vitro translated, 35S-Met trace-labelled Flag-tagged Smad1 (35S-F/Smad1), Smad2 (35S-F/Smad2) or Smad4 (35S-F/Smad4) immobilized on anti-Flag affinity gel matrices. After washing, bound proteins were eluted and analyzed by SDS-PAGE (right panel).

T1 sequence (Q9PUN2 whole entry, the tested form may be a part): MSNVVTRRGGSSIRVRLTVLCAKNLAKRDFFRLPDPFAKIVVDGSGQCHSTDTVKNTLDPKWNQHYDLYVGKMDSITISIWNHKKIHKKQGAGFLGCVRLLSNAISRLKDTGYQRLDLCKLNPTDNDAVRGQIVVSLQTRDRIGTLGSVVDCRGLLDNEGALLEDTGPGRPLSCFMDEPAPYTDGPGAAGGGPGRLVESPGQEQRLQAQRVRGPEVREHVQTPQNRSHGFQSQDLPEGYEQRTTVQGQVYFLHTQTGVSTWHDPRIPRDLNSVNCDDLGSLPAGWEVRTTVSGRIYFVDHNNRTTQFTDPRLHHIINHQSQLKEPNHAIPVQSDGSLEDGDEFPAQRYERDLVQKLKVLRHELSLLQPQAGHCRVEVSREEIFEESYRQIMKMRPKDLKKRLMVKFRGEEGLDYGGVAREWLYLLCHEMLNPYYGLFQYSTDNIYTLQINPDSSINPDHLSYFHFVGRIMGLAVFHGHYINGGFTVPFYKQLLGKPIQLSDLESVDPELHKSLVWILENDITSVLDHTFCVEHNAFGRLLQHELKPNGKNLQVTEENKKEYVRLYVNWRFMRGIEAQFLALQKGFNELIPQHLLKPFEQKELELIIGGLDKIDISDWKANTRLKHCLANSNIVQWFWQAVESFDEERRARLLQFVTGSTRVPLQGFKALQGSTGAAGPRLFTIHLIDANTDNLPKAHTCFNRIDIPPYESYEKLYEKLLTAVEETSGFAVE

B1: mouse Smad4, FLAG-tagged at the C-terminus, in vitro translated (other, UniProt P97471 1-551, looked up)
chain: MDNMSITNTPTSNDACLSIVHSLMCHRQGGESETFAKRAIESLVKKLKEKKDELDSLITAITTNGAHPSKCVTIQRTLDGRLQVAGRKGFPHVIYARLWRWPDLHKNELKHVKYCQYAFDLKCDSVCVNPYHYERVVSPGIDLSGLTLQSNAPSMLVKDEYVHDFEGQPSLPTEGHSIQTIQHPPSNRASTETYSAPALLAPAESNATSTTNFPNIPVASTSQPASILAGSHSEGLLQIASGPQPGQQQNGFTAQPATYHHNSTTTWTGSRTAPYTPNLPHHQNGHLQHHPPMPPHPGHYWPVHNELAFQPPISNHPAPEYWCSIAYFEMDVQVGETFKVPSSCPVVTVDGYVDPSGGDRFCLGQLSNVHRTEAIERARLHIGKGVQLECKGEGDVWVRCLSDHAVFVQSYYLDREAGRAPGDAVHKIYPSAYIKVFDLRQCHRQMQQQAATAQAAAAAQAAAVAGNIPGPGSVGGIAPAISLSAAAGIGVDDLRRLCILRMSFVKGWGPDYPRQSIKETPCWIEIHLHRALQLLDEVLHTMPIADPQPLD
notes: also called 35S-F/Smad4; not shown: C-terminal FLAG tag
With B1, the binding result is given as “no binding”.

B2: human Smad2, FLAG-tagged at the C-terminus, in vitro translated (other, UniProt Q15796 1-467, looked up)
chain: MSSILPFTPPVVKRLLGWKKSAGGSGGAGGGEQNGQEEKWCEKAVKSLVKKLKKTGRLDELEKAITTQNCNTKCVTIPSTCSEIWGLSTPNTIDQWDTTGLYSFSEQTRSLDGRLQVSHRKGLPHVIYCRLWRWPDLHSHHELKAIENCEYAFNLKKDEVCVNPYHYQRVETPVLPPVLVPRHTEILTELPPLDDYTHSIPENTNFPAGIEPQSNYIPETPPPGYISEDGETSDQQLNQSMDTGSPAELSPTTLSPVNHSLDLQPVTYSEPAFWCSIAYYELNQRVGETFHASQPSLTVDGFTDPSNSERFCLGLLSNVNRNATVEMTRRHIGRGVRLYYIGGEVFAECLSDSAIFVQSPNCNQRYGWHPATVCKIPPGCNLKIFNNQEFAALLAQSVNQGFEAVYQLTRMCTIRMSFVKGWGAEYRRQTVTSTPCWIELHLNGPLQWLDKVLTQMGSPSVRCSSMS
notes: also called 35S-F/Smad2; not shown: C-terminal FLAG tag
For B2, the binding result is listed as “no binding”.
